Test in all cases: EMSA
(In general: In EMSA bound probe runs differently from free probe, usually more slowly.)

Series [1] has as its target NF-kB p65/p50 heterodimer (Homo sapiens) (UniProt Q04206+P19838). To be noted: 50% competition not reached; same for p50/p50.
For series [2], the target named is T1, NF-kB p50/p50 homodimer (Homo sapiens) (UniProt P19838).
T1 sequence: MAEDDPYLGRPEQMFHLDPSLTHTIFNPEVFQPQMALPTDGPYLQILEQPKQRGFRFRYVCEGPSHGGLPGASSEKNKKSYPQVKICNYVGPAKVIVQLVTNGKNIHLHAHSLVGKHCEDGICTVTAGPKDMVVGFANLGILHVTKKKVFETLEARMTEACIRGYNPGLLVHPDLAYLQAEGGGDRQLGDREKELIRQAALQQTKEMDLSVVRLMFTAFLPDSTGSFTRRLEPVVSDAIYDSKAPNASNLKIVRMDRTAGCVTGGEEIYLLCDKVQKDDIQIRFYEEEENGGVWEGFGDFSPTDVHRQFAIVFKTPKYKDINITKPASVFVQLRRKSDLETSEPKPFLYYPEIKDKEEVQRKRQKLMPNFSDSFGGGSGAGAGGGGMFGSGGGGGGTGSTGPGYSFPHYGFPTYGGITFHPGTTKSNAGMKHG
To be noted: score 100 = less than 50% competition at any ratio tested.

The test system of a further series is E2F.

NF-kB p65/p50 heterodimer (Homo sapiens), sequence (Q04206 whole entry, one chain of several): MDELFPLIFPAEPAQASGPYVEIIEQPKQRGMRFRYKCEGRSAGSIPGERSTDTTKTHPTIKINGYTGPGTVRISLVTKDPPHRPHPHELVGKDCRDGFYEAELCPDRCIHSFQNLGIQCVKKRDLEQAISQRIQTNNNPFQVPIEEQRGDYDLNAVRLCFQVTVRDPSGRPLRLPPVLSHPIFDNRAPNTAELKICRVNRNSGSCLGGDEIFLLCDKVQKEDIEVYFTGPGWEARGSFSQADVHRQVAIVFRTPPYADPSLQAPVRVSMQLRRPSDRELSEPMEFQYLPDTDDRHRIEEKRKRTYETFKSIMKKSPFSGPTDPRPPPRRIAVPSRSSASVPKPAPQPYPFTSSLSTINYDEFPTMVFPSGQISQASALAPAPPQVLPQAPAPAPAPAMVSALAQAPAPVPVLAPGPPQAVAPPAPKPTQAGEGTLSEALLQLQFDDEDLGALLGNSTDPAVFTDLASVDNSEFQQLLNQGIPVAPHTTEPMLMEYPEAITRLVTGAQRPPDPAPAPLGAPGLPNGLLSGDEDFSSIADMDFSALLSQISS

The sequence “AGTTGAGACTTTCGCAGGC (double strand) [decoy 159 G-Z]” showed an IC50 in series [1] of 100 score. In series [2], the IC50 (fold molar excess) was more than 100.

“CTAGATTTCCCGCG (double strand) [E2F reference decoy]” had a binding signal (% competition at 10-fold excess) with E2F (40% at 40-fold excess) of 7.

Take “CTAGATTTCCCGCGGATC (double strand) [E2F novel decoy]”: the binding signal (% competition at 10-fold excess) in the series with E2F (90% at 40-fold excess) was more than 60.
